Columns and labels:
Assay in all cases: ELISA, Fab on E1E2 antigen
[1] = target: HCV E1E2 antigen, isolate UKN1B12.16 (hepatitis C virus, isolate UKN1B12.16)
[2] = target: HCV E1E2 antigen, isolate UKN4.21.16 (hepatitis C virus, isolate UKN4.21.16)
[3] = target: HCV E1E2 antigen, isolate CH35 (hepatitis C virus, isolate CH35)
[4] = target: T1, HCV E1E2 antigen, isolate JFH (hepatitis C virus, isolate JFH, UniProt Q99IB8 192-383; Q99IB8 384-750)
T1 construct: also called JFH-1

[5] = target: HCV E1E2 antigen, isolate J6E3 (hepatitis C virus, isolate J6E3, UniProt P26660 192-383; P26660 384-750)
HCV E1E2 antigen, isolate J6E3, sequence (P26660 192-383 limits assumed, chain 1 of 2): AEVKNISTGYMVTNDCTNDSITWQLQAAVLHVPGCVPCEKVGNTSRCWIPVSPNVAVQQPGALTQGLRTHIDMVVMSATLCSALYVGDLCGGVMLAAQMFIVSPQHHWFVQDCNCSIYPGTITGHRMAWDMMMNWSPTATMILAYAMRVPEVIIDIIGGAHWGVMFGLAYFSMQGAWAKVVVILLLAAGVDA
HCV E1E2 antigen, isolate J6E3, sequence (P26660 384-750 limits assumed, chain 2 of 2): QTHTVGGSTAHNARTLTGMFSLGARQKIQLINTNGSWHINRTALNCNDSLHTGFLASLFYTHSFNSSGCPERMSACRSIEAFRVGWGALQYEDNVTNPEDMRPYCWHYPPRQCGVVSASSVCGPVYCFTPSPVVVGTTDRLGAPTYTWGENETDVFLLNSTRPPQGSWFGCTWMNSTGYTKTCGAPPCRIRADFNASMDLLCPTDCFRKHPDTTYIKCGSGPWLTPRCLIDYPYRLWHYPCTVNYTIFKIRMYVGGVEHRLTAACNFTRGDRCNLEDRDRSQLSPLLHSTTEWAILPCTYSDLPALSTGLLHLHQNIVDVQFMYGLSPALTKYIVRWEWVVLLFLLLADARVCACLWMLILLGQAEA

[6] = target: HCV E1E2 antigen, isolate UKN3A1.28c (hepatitis C virus, isolate UKN3A1.28c)
[7] = target: HCV E1E2 antigen, isolate UKN6.5.8 (hepatitis C virus, isolate UKN6.5.8)
[8] = target: HCV E1E2 antigen, isolate UKN5.15.7 (hepatitis C virus, isolate UKN5.15.7)
[9] = target: HCV E1E2 antigen, isolate UKN2B1.1 (hepatitis C virus, isolate UKN2B1.1)
[10] = target: HCV E1E2 antigen, isolate OH8 (hepatitis C virus, isolate OH8)

T1 sequence (Q99IB8 192-383 limits assumed, chain 1 of 2): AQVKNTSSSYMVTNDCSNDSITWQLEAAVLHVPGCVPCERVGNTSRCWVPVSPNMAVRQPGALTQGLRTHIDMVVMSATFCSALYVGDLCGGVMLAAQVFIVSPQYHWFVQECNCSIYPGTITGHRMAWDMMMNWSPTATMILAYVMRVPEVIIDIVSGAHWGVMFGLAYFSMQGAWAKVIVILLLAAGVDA
T1 sequence (Q99IB8 384-750 limits assumed, chain 2 of 2): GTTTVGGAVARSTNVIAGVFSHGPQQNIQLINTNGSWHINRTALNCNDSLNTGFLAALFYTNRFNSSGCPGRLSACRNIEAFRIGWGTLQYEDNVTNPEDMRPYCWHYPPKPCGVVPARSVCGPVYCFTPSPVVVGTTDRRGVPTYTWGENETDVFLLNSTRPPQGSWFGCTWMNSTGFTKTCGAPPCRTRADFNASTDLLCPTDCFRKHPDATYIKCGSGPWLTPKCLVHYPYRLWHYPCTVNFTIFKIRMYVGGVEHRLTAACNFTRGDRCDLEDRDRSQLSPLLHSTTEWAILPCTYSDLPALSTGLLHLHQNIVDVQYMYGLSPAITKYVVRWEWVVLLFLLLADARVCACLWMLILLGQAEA

Binder	OD 450 nm [1]	OD 450 nm [2]	OD 450 nm [3]	OD 450 nm [4]	OD 450 nm [5]	OD 450 nm [6]	OD 450 nm [7]	OD 450 nm [8]	OD 450 nm [9]	OD 450 nm [10]
Fab N1 (Fab, V domains shown) VH: VQLLEQSGPEVKKPGDSLRISCKMSGDSLVTTWIGWVRQKPGQGLEWMGIINPGDSSTNIYPGDSATRYGPSFQGQVTISIDKSTSTAYLQWNAVKPSDTGIYYCARHVPVPISGTFLWREREMHDFGYFDDWGQGTLVIVSS VL: ELTQSPGTLSLSPGERATLSCRASQSVSSSYLAWYQQKPGQAPRLLIYGASNRAAGIPDRFSGSGSGADFTLTISRLEPEDFAVYYCQQYGSSLITFGQGTRLEIKR	0.65 OD 450 nm	0.93 OD 450 nm	0.59 OD 450 nm	0.99 OD 450 nm	0.64 OD 450 nm	1.08 OD 450 nm	0.29 OD 450 nm	0.43 OD 450 nm	0.33 OD 450 nm	1.13 OD 450 nm
Fab N4 (Fab, V domains shown) VH: VQLLEQSGPEVKKPGDSLRISCKMSGDSLVTTWIGWVRQKPGQGLEWMGIINPGDSSTNIYPGDSATRYGPSFQGQVTISIDKSTSTAYLQWNNVKASDTGIYYCARHVPVPISGTFLWREREMHDFGYFDDWGQGTLVIVSS VL: ELTLTQSPGTLSLSPGERATLSCRASQSVSNNYLAWYQQKPGQAPRLLIYGASSRATGIPDRFSGSGSGTGFTLIISRLEPEDFAVYYCQQYGSSSITFGQGTRLEIKR	1.06 OD 450 nm	1.49 OD 450 nm	1.03 OD 450 nm	1.57 OD 450 nm	0.99 OD 450 nm	1.73 OD 450 nm	0.44 OD 450 nm	0.71 OD 450 nm	0.48 OD 450 nm	1.75 OD 450 nm
Fab N2 (Fab, V domains shown) VH: VQLLEQSGPEVKKPGDSLRISCKMSGDSLVTTWIGWVRQKPGQGLEWMGIINPGDSSTNIYPGDSATRYGPSFQGQVTISIDKSTSTAYLQWNTVKPSDTGIYYCARHVPVPISGTFLWREREMHDFGYFDDWGQGTLVIVSS VL: ELTQSPGTLSLFPGERATLSCRASQSILGRYLAWYQQKGGRAPRLLIFGASKRATGIPDRFSGSGSGTDFTLTIGRLEPEDFAVYYCQHYGSSITFGQGTRLDIKR	0.81 OD 450 nm	1.09 OD 450 nm	0.82 OD 450 nm	1.34 OD 450 nm	0.92 OD 450 nm	1.36 OD 450 nm	0.4 OD 450 nm	0.46 OD 450 nm	0.44 OD 450 nm	1.44 OD 450 nm
Fab O1 (Fab, V domains shown) VH: VQLLEQSGAEVKKAGESVRLSCKASGYRFGDYWIAWVRQLPGRAPEWMGIIYPDDSDTKYSPSFQGQVTISADKSIRTTFLDWGSLKASDTAIYYCARGCLGAKCYYPHYYYGLDVWGQGTTVIVSS VL: ELTQSPSSLSASVGDRVTITCRATQGIDNYLNWYQQKPGKPPRLLIYGASSLQSGVPSRFSGGGSGTHFTLTITNLQPEDFATYYCQQSYSTPPETFGQGTKVEIKR	0.17 OD 450 nm	0.57 OD 450 nm	0.27 OD 450 nm	0 OD 450 nm	0.05 OD 450 nm	0.48 OD 450 nm	0.02 OD 450 nm	0.1 OD 450 nm	0.02 OD 450 nm	0.44 OD 450 nm
Fab N3 (Fab, V domains shown) VH: VQLLEQSGAEVKKPGDSLRISCKMSGDSLVWIGWVRQKPGQGLEWMGIINPGDSATNIYPGDSDTRYGPSFQGQVTISIDKSTSTAYLQWNAVKASDTGIYYCARHVPVPISGTFLWREREMHDLGYFDDWGQGTLVIVSS VL: not shown	0.62 OD 450 nm	0.96 OD 450 nm	0.59 OD 450 nm	1.2 OD 450 nm	0.66 OD 450 nm	1.27 OD 450 nm	0.23 OD 450 nm	0.37 OD 450 nm	0.29 OD 450 nm	1.32 OD 450 nm
Fab P4 (Fab, V domains shown) VH: not shown VL: ELTQSPGTLSLSPGERATLSCRASQSVSSSNLAWFQHKSGRAPRLLIYGASNRAPDIPDRFSGSGSGTDFTLSISRLEPEDFAVYYCQRYGDSPPITFGQGTRLEIKR	0.59 OD 450 nm	0.99 OD 450 nm	0.52 OD 450 nm	0.45 OD 450 nm	–	1.07 OD 450 nm	0.19 OD 450 nm	0.31 OD 450 nm	0.09 OD 450 nm	1.15 OD 450 nm
Fab P1 (Fab, V domains shown) VH: EVQLLESGGGVVQPGGSLRLSCAASGFTFTSFTMHWVRQAPGKGLEWVALISHDGSNKDYADSVRGRFTVSRDNSKKMVYLQMSSLRPDDAAVYYCARGGPAYYTYSDTLTGYHNVVGDYWGQGTLVTVSS VL: ELTQSPGTLSLSPGERATLSCRASQVRGFLAWFQQKPGQAPRLLIYGASNRAPGIPDRFSGSGSGTDFTLTISRLEPEDFAVYYCQQYGDSPPITFGQGTRLEIKR	0.26 OD 450 nm	0.62 OD 450 nm	0.27 OD 450 nm	–	0.08 OD 450 nm	0.98 OD 450 nm	0.06 OD 450 nm	0.17 OD 450 nm	0.03 OD 450 nm	0.8 OD 450 nm
Fab P1a (Fab, V domains shown) VH: EVQLLESGGGVVQPGGSLRLSCAASGFTFTSFTMHWVRQAPGKGLEWVALISHDGSNKDYADSVRGRFTVSRDNSKKMVYLQMSSLRPDDAAVYYCARGGPAYYTYSDTLTGYHNVVGDYWGQGTLVTVSS VL: ELTQSPGTLSLSPGERATLSCRTSQSVSSTYLAWYQQKPGQPPRLLIYGASNRAPGIPDRFSGSGSGTDFTLTISRLEPEDFAVYYCQQYGDSPPITFGQGTRLDIKR	0.15 OD 450 nm	0.04 OD 450 nm	0.08 OD 450 nm	0 OD 450 nm	0.03 OD 450 nm	0.18 OD 450 nm	0.05 OD 450 nm	-0.04 OD 450 nm	0 OD 450 nm	0.24 OD 450 nm
Fab V1 (Fab, V domains shown) VH: VQLLEQSGAEVQKPGASVKVSCKPSGYIFTNFGISWVRQAPGQGLEWMAWINTYNGKTTYAQSLQGRVTLTTDPYTNTVFMELRSLRSDDTAVYYCARENEGEYVWGHFRSDYWGQGTLVTVSS VL: ELTQSPSSLSASVGDRVTITCQASQDISNFLNWYQRRPGKAPNLLIYDATHLETGVPSRFSGSGFGTHFTLTINSLQPEDIGTYYCQHFDDVPSFTFGPGTKVDLKR	0.16 OD 450 nm	1.02 OD 450 nm	0.77 OD 450 nm	–	–	0.06 OD 450 nm	0.05 OD 450 nm	0.3 OD 450 nm	0.3 OD 450 nm	1.35 OD 450 nm

From patent US20110311550A1 (Scripps Research, published 2011)
